Target: T1, p97 N domain (21-196) (UniProt P55072 21-196)
T1 construct: p97 (VCP, valosin-containing protein), N-terminal domain, residues 21-196; The methods describe only the fusion proteins (pVFT3S vector, His6-thioredoxin cut off by TEV, E. coli Rosetta2 (DE3)); also called p97N^WT; N-terminal domain of p97; source: recombinant
Experiment: ITC; p97 N domain (2.0 mM) injected into the cell with Ufd1 SHP peptide (0.050 mM), 25°C, one-site binding model
Settings: both partners purified

T1 sequence (P55072 21-196): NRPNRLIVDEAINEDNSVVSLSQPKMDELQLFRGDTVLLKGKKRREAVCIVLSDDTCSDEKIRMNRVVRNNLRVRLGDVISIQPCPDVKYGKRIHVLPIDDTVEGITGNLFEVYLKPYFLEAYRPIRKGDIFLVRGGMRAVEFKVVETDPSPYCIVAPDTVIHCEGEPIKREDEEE

Kd: 221 ± 36 µM
B1: Ufd1 SHP box peptide (225-235) (peptide)
peptide: FRAFSGSGNRL
notes: also called Ufd1SHP^WT; SHP box of Ufd1; source: synthetic peptide (Peptron, Korea)
